# Test results published in patent publication US20200181617, “CHEMICALLY MODIFIED RNA APTAMERS AND USES THEREOF” (ALBERT EINSTEIN COLLEGE OF MEDICINE, published 2020).
# T1: LRIG1 (UniProt Q96JA1 Q96JA1:35-794)
# T1 sequence: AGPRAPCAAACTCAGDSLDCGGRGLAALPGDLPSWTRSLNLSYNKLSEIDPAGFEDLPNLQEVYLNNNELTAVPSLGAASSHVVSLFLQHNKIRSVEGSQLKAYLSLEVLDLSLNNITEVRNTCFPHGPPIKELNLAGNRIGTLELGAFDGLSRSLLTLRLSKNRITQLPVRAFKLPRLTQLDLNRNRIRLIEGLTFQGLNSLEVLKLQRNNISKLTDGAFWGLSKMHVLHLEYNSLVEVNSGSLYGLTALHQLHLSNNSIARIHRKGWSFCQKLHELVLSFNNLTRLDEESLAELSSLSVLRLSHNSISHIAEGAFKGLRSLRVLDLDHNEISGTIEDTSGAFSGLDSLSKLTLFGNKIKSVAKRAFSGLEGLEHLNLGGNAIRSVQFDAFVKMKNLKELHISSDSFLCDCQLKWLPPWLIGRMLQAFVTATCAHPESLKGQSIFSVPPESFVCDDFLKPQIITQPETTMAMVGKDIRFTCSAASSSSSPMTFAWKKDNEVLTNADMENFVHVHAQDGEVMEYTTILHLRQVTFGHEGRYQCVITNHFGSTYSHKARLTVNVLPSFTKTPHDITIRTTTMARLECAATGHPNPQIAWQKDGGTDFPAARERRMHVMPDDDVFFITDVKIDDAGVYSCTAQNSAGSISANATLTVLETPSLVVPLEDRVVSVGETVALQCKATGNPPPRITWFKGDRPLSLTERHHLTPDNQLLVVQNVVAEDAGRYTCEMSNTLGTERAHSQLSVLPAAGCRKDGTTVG
# Target: T1, LRIG1
# Test: flow; apparent; protein on Dynal His beads; no signal on non-protein beads
# Conditions: tags: His-tagged, immobilized on magnetic His-capture beads (Dynal His beads)
# Experimental: Using a N40 library containing ˜10″ unique sequences, transcribed using a mixture of Phe-dUTP, 2′OMe ATP, 2′OMe CTP and 2′F GTP, SELEX was initiated against the protein LRIG1. In short, the His-tagged protein was immobilized on 1 μm, magnetic His-capture beads and incubated with the library for 30 minutes at 37° C. after which the beads were washed 3 times with buffer, and then any bound library molecules eluted by the addition of wash buffer containing the denaturant guanidine hydrochloride (4M). Following elution the library molecules were recovered by ethanol precipitation and reverse transcribed into DNA using SSIV under optimized conditions (2M betaine). The resulting ssDNA was then amplified by PCR and the resulting dsDNA then transcribed back in to modified RNA by transcription using the LAL-polymerase and a mixture of Phe-dUTP, 2′OMe ATP, 2′OMe CTP and 2′F GTP under the present optimized conditions. The process was repeated for 8 rounds of selection. A fluorescently labeled library was used to monitor the selection by flow cytometry. […] Importantly, when similar experiments were performed using non-protein target loaded beads, no signal over background was observed. […] Subsequent experiments were carried out to clone and sequence the round 6, 7 and 8 population and test individual molecules identified from the screen. […]
row,Binder,Kd
1,"Lrig1-Rd8-08 (clone 8) (XNA, 2'-F G; 2'-OMe A; 2'-OMe C; all T positions are 5-modified dU (Phe-dU)) DNA: GGGAAGGAGAGACGACGCGACACCCCCTTGAGTCACAGGTGTGTGAGCGCCGACGGCTTGGTACAGCAGACAAGACCGGACAAGAAGC",~25 nM
2,"Lrig1-Rd8-11 (clone 11) (XNA, 2'-F G; 2'-OMe A; 2'-OMe C; all T positions are 5-modified dU (Phe-dU)) DNA: GGGAAGGAGAGACGACGCGACACCCGCTTCACCGCTGTGTAACTGCGACGACGGACGTCAGATCAGCAGACAAGACCGGACAAGAAGC",~35 nM
